{
  "source": "paper PMC9605714",
  "target": "SUMOylated Hsp82p (Hsp82p^K178C crosslinked with BMOE to Smt3p^Cys at position 178) (S. cerevisiae) (UniProt P02829)",
  "data": [
    {"binder": "6xHisMyc-tagged Aha1p (natural protein) MVVNNPNNWHWVDKNCIGWAKEYFKQKLVGVEAGSVKDKKYAKIKSVSSIEGDCEVNQRKGKVISLFDLKITVLIEGHVDSKDGSALPFEGSINVPEVAFDSEASSYQFDISIFKETSELSEAKPLIRSELLPKLRQIFQQFGKDLLATHGNDIQVPESQVKSNYTRGNQKSSFTEIKDSASKPKKNALPSSTSTSAPVSSTNKVPQNGSGNSTSIYLEPTFNVPSSELYETFLDKQRILAWTRSAQFFNSGPKLETKEKFELFGGNVISELVSCEKDKKLVFHWKLKDWSAPFNSTIEMTFHESQEFHETKLQVKWTGIPVGEEDRVRANFEEYYVRSIKLTFGFGAVL", "values": [
      {"measurement": "apparent binding affinity (K app) from Aha1p titration into ATPase reactions of 1 uM Hsp82p form (PK/LDH regenerating system)", "value": 0.31, "unit": "µM"}
    ]}
  ]
}
